Series [1] deals with the molecule itself. Kind of series: SEC. For orientation: SEC sorts molecules by how far they enter the pores of the column.
Series [2] deals with the molecule itself. Kind of series: cross-linking.
Series [3] concerns the molecule itself. Kind of series: crystal structure.
In series [4] the target is Rad50 dCC (in MRN);Mre11;Nbs1 (Homo sapiens;Homo sapiens;Homo sapiens, UniProt Q92878;P49959;O60934 1-1312;1-708;1-754, del614-668;del702-750||). Kind of series: EMSA. For orientation: Mobility shift assays separate free from complexed probe on a gel.
The target of series [5] is Rad50 WT (in MRN);Mre11;Nbs1 (Homo sapiens;Homo sapiens;Homo sapiens, UniProt Q92878;P49959;O60934 1-1312;1-708;1-754, ||). Kind of series: EMSA.
Series [6] concerns the molecule itself. Kind of series: SAXS.

Substitutions are numbered along the chain they refer to. Names and notes keep the numbering of the source.

B1: Rad50ΔCC (Rad50HCC182 with residues 614-668 and 702-750 deleted) (domain or fragment, human, UniProt Q92878 585-766, looked up)
chain: KEINQTRDRLAKLNKELASSEQNKNHINNFITQLTDENQSCCPVCQRVFQTEAELQEVISDLRNKLQNVNRDIQRLKN
For the molecule B1, the binding result in series [1] is listed as “binds”.

B2: Rad50ΔCC K599C (domain or fragment, human, UniProt Q92878 585-766, looked up)
chain: B1 chain with K15C
For the molecule B2, the binding result in series [2] was “binds”.

B3: human Rad50 hook and coiled-coil domain, HsRad50HCC182 (residues 585 to 766) (domain or fragment, UniProt Q92878 585-766, looked up)
chain: KEINQTRDRLAKLNKELASSEQNKNHINNELKRKEEQLSSYEDKLFDVCGSQDFESDLDRLKEEIEKSSKQRAMLAGATAVYSQFITQLTDENQSCCPVCQRVFQTEAELQEVISDLQSKLRLAPDKLKSTESELKKKEKRRDEMLGLVPMRQSIIDLKEKEIPELRNKLQNVNRDIQRLKN
For B3, the binding result in series [3] is “binds”.

B4: Rad50-48 (S679R, P682R) Rad50HCC182 K599C (domain or fragment, human, UniProt Q92878 585-766, looked up)
chain: B3 chain with K15C, S95R, P98R
On to B4, for which, in series [2], the binding result is reported as “binds”.

B5: HsRad50HCC182 S738C (domain or fragment, human, UniProt Q92878 585-766, looked up)
chain: B3 chain with S154C
With B5, in series [2], the binding result is on record as “binds”.

B6: HsRad50HCC182 K599C (domain or fragment, human, UniProt Q92878 585-766, looked up)
chain: B3 chain with K15C
Consider B6, for which the binding result in series [2] is on record as “binds”.

B7: 83-mer dsDNA (dsDNA)
DNA 1: TTGATAAGAGGTCATTTTTGCGGATGGCTTAGAGCTTAATTGCTGAATCTGGTGCTGTAGCTCAACATGTTTTAAATATGCAA
DNA 2: TTGCATATTTAAAACATGTTGAGCTACAGCACCAGATTCAGCAATTAAGCTCTAAGCCATCCGCAAAAATGACCTCTTATCAA
Turning to B7, the binding result in series [4] and in series [5] was “binds” each time.

B8: HsRad50HCC construct that contains the two interfaces (residues 635 to 730) (domain or fragment, human, UniProt Q92878 635-730, looked up)
chain: SQDFESDLDRLKEEIEKSSKQRAMLAGATAVYSQFITQLTDENQSCCPVCQRVFQTEAELQEVISDLQSKLRLAPDKLKSTESELKKKEKRRDEML
B8: in series [6], the binding result is given as “binds”.
